Data taken from the DeepSol protein solubility set.

Experiment: soluble on expression in E. coli; label from the status in PepcDB or PDB records

Row | Sequence | soluble on expression in E. coli
1 | MYEPKPEHRFTFGLWTVGNVGRDPFGDAVRERLDPVYVVHKLAELGAYGVNLHDEDLIPRGTPPQERDQIVRRFKKALDETGLKVPMVTANLFSDPAFKDGAFTSPDPWVRAYALRKSLETMDLGAELGAEIYVVWPGREGAEVEATGKARKVWDWVREALNFMAAYAEDQGYGYRFALEPKPNEPRGDIYFATVGSMLAFIHTLDRPERFGLNPEFAHETMAGLNFVHAVAQALDAGKLFHIDLNDQRMSRFDQDLRFGSENLKAAFFLVDLLESSGYQGPRHFDAHALRTEDEEGVWAFARGCMRTYLILKERAEAFREDPEVKELLAAYYQEDPAALALLGPYSREKAEALKRAELPLEAKRRRGYALERLDQLAVEYLLGVRG | soluble
2 | GPGSMMDCDHLLRLGMTAKKILENGKGILAADETPKTLGRRFEKLGITNTEENRRKFREILFSTKGIERYIGGVILNQETFEQTSGSGVPLTELLKKKGIEIGIKLDKGLIDYKEKEKISVGLEDLDLRCKSSAFKDATFAKWRSLFYFYDGIPSEDCINENCSILAKYAIICQKNGLVPIVEPEVFLEGDYSMKRSYEVTRQILSTLMKYLNYELVYIPGVLIKASYVTSGQLSNEKYTPKKVATFTLRALLSTIPCGIPGIVFLSGGHGSEDAIGFLNAINMERGCRTWSLSFSFARALTDGVLETWRGDDSNIEEAQKILLETSFKACRGAEGKLWDQE | soluble
3 | MLLIDKGHDIYKRNCPILQKKIEKCPPPAGKKDYAGCVPACSITNGFGGAGAYSDGKFNITSEFGGWMTDYLPASTVLELIRYVDEINLKHGATTSITDPMTDKVKEIERRAYAAGLKLLRAYVRHLGTEQNLAILQSIFEYLRERITMRFKTEVDDIVTERTEDGHEVKGVVLKNGETLTAEKVVIAPGRDGSVWLSKLLRKRRLRMINNQVDIGVRVETSNIVMQEINEHLYEGKFIFNTSVGTQVRTFCSNPSGHVVVENHSGIMLANGHAYKDPKLGSSNTNFALLVSHKFADPFDKPNEYAHEISRLANALSNGGIIVQKYGDILKGRRSTEKRIKEGFIEPTLKEAVPGDLGLVLPYNTMKSLIEMTEALNHVTPGLASEHTLFYGVEAKFYSARPKLNDRFETEIAGLYVGGDGAGITRGLAQASACGVWIARDIVEKLTRLEHHHHHH | not soluble
4 | MEYLFLRRKKTSSTSVRQKTLLYRAAGREWTARFSSLSDVRPADSLIYKGILYQLEIRRAFLDSSLSLKKLSMMLETNQTYLSNAVNRYFGCHLKELLNRYRVEYAKELLRNGGCPLGEVPSRSGFGSKSPFYLAFVRQTGMTPKRYAARERNLVNLEIENEVLL | not soluble
5 | MTTTQDWIMIGGYGPESYNQQSSYQRALLEAAKDKMTEAISANLDLDLISNRFIVADFGCASGPNTFVAVQNIIDAVEEKYLRETGQNPEDNIEFQVLFNDLRINDFNTLFQTLPPGRRYFSAGVPGSFFNRVLPKQSFHIAVMSYAFLFTSKIPKGIMDRDSPLWNKDMQCTGFNPAVKKAYLEQYSIDTKNLLDARAEELMPGGLMLLLGSCMRDGVKMSETLKGTVMDFIGESLNDLAQKGVTEQEKVDTFKTSIYFAEQGEIRQIIEENGKFTIEAFEDIIHSKNEFPLDPKTLAISFKALYGAFISAHFGIEVMRKAFELVEVKAREQISRLHKVKPGMQYLIVLRKN | soluble
6 | MFRNNYDGDTVTFSPTGRLFQVEYALEAIKQGSVTVGLRSNTHAVLVALKRNADELSSYQKKIIKCDEHMGLSLAGLAPDARVLSNYLRQQCNYSSLVFNRKLAVERAGHLLCDKAQKNTQSYGGRPYGVGLLIIGYDKSGAHLLEFQPSGNVTELYGTAIGARSQGAKTYLERTLDTFIKIDGNPDELIKAGVEAISQSLRDESLTVDNLSIAIVGKDTPFTIYDGEAVAKYI | soluble
7 | MAHHHHHHMVQRTLLDFVRKKDPSPNVINVDAESDEQDEAASRKRRMQGVREPALAFTKPRTENKDDICCSNNFSALITDSGWRAFLQPLTSTTNFRNIEQFIEGEKTKGKVILPPSDLIFSAFNSTPLDRLKVVLLGQDPYHNIGQAHGLCFSVLPGVRPPPSLLNMYKELTTDISGFKSPPHGYLQCWAEQGVLMLNATLTVEAHQANSHAKCGWQAFTDGVIRLLSEKHQRPIVFLLWGGFARKKITLIDQKRHLVIENAHPSPLSAAKWWGSRPFSKCNAALTQLGHSPIDWSIPMSVERRH | not soluble
8 | MSLRTTDIRVRDLYFEYEDFRYRTPIKFGGVALGRVTLLNVRMTVESAAGKAATGFGSMPLGNVWAYPSRLLTYDQTLGAMRFLASRIADGYRLCGLSGHPIDITHQLEPELLLAGNDFTAIHRPSDPVPKLAVLVVASAFDAALHDAYGKLHGLNCFRTYTREFLPDDLGHYLGAEFNGLHLDDFITHEPKPSMPLYHLVGALDPITPEDVTQPVGDGLPEHLAEWITRDGLTHLKIKLNGDDLGWDVERCVRINAVAEDAQRARGVTTWWYSLDFNERCQNVGYLIEFLQKLRERTPAGYDRVQYVEQPTARDLNAHPENKMHAAAKLKPVVIDESLLDLESLKLSMEMGYTGVAFKACKGQTQTLLLAAAAQKYGLFRCVQDLTCVGASLIHSAGLAAHIPGVAAIESNGRQYCPTANVAWDAKFPGVFTITGGSMNTALLNGVGLGAVSEGHHHHHH | soluble
9 | MGSDKIHHHHHHMKHIHIIGIGGTFMGGIAAIAKEAGFEVSGCDAKMYPPMSTQLEALGIGVYEGFDTAQLDEFKADVYVIGNVAKRGMDVVEAILNRGLPYISGPQWLAENVLHHHWVLGVAGTHGKTTTASMLAWVLEYAGLAPGFLIGGVPENFSVSARLPQTPRQDPNSQSPFFVIEADEYDTAFFDKRSKFVHYRPRTAVLNNLEFDHADIFADLGAIQTQFHHLVRTVPSEGLIVCNGRQQSLQDTLDKGCWTPVEKFGTEHGWQAGEANADGSFDVLLDGKKAGHVAWSLMGGHNRMNALAVIAAARHAGVDIQTACEALSTFKNVKRRMEIKGTANGITVYDDFAHHPTAIETTIQGLRQRVGGARILAVLEPRSNTMKLGTMKAALPASLKEADQVFCYAGGADWDVAEALAPLGGRLHVGKDFDAFVAEIVKNAEAGDHILVMSNGGFGGIHTKLLDALR | not soluble
10 | MAPAEILNGKEISAQIRARLKNQVTQLKEQVPGFTPRLAILQVGNRDDSNLYINVKLKAAEEIGIKATHIKLPRTTTESEVMKYITSLNEDSTVHGFLVQLPLDSENSINTEEVINAIAPEKDVDGLTSINAGRLARGDLNDCFIPCTPKGCLELIKETGVPIAGRHAVVVGRSKIVGAPMHDLLLWNNATVTTCHSKTAHLDEEVNKGDILVVATGQPEMVKGEWIKPGAIVIDCGINYVPDDKKPNGRKVVGDVAYDEAKERASFITPVPGGVGPMTVAMLMQSTVESAKRFLEKFKPGKWMIQ | soluble
11 | MLTLNYYVEITATPQRVWRVLTDAELYKRWAQAFSPQSQFEGEWEEGSDITFFDPDMGGTRAVIDSVQPLHRLEFHHVAIFNPDNRQQLDADIAAKWIGSREIYQIDTEDERLLLNITIHTHSDFVSMFNNGWEKALPLIKSICEETDSQLEHHHHHH | soluble
12 | IEVAAIQGNVPRMGLDFNAQRRAVLANHARETLKLDEQVDLVIWPENSSDVNPFSDAQARAIIDGAVEHVQAPILVGTITVDEVGPRNTMQVFDPVEGAAEYHNKKFLQPFGEYMPFREFLRIFSPYVDSAGNFQPGDGTGVVEMNAANLGRAVTVGVMTCYEVIFDRAGRDAIANGAEFLTTPTNNATFGFTDMTYQQLAMSRMRAIEFDRAVVVAATSGVSAIVNPDGSISQNTRIFEAATLTESIPLKDTVTIAARVGFY | not soluble
13 | ADKKLVVATDTAFVPFEFKQGDLYVGFDVDLWAAIAKELKLDYELKPMDFSGIIPALQTKNVDLALAGITITDERKKAIDFSDGYYKSGLLVMVKANNNDVKSVKDLDGKVVAVKSGTGSVDYAKANIKTKDLRQFPNIDNAYMELGTNRADAVLHDTPNILYFIKTAGNGQFKAVGDSLEAQQYGIAFPKGSDELRDKVNGALKTLRENGTYNEIYKKWFGTEPK | soluble
14 | MSLSGAVFKTFLTSEHASWNRFNRRLHIPNEDIVDEIQLKARMQQRHHRVYPEIGDSTIVSFRGKDYAVHFIKDGPKDDYVYKVQRITPENGCFSTLFSVFSGGVTKALERKLNERHITPLSSTWFPRTPLEGILAERGLSSLLRRVQSTERLDNRAIATRASSYSVL | not soluble
15 | KNTDLVAEDSICFPIDEHTYYASKSIFQFEENGHEYLSFLDAEYSQKINIYDIKNQKLIKTILLQKEGPNGMNVLSGCHPLNLNHFIITSWNGTFSLVNDKGEIEKKFDFWEKGVNFQEFDHISFSSYSYKPAIIKDSILYFSQSFLKHPRKKSDWNKIPMFAFANLNTGKTGWSELRYPLIFNKDEDFKNVKLYDPEICYTYTGKDVVISLGQYDSIMVSSDFKHKISYNAKSRYLAHAYPHLQDGQIDLFKNIQIQGKLPHYSHLMYDKYRKVFYRFALMPDDNIKPFSNNPHQSFSIIILNKDYEIIGETKFPGNTYTHHLCFVGKKGLYISENNENNPQFDENKLVFRCFTLQDRKK | soluble
16 | MGSDKIHHHHHHMSIKSDKWIRRMAAQHGMIEPFEPNPIRQVNGEKIVSYGTSSYGYDIRCADEFKVFTNINSTIVDPKNFDPNSFVEFKNDFCIIPPNSFALARTVEYFRIPRSVLTVCLGKSTYARCGIIVNVTPFEPEWEGYVTLEFSNTTPLPAKIYAGEGCAQVLFFESDEECEISYKDRGGKYQGQVGVTLPKI | not soluble
17 | MGSDKIHHHHHHMATHNHTLTMEWIVDRTRTVYSLPYFYERLNEAINHPRSSIDDVARIIIDDQGLTARILKLANSPMFGFFSKVDSISKAVTIIGTQQLRDLALAASVMDVFKDIPRELMDMVLFWRHSIACGIVARNLAIYLRESNVERFFVAGILHDVGQLVMCTAIPEKVSEVLARNRLESRFLDATERDALGFDHAALGGALLRAWKIPATINEPVAYHHEPGKAEQFSLEVSIIHLADIICQALGYGASGEGGVPLLDPAAWDRLGVPVSILTTIVKQSEPQVEETFAILVEG | not soluble
18 | MGSDKIHHHHHHMENIESSFIDLPNPRKDIEDLQPYSAPLEGRRNLLRLDFNENTIGPSPLVIKSLREISRDEISAYPEYSGLKEKVVESLIKKNSNVNINSSEVGIFNGVDAAINAIFHAYGNFDDLMLTTLPTFGYYTPCAQMRGMQIKAIPYEGEGFQYPFDSICEFLTQNNPKILLICNPNNPTGTRLSPERIIEISKLSSKTLVVVDELYEAFTGDSVLPFLNFQTTPNLVVLRSLSKTAGLASLRIGFAIGHSKVINIVNRVTGPYDVNSFAVIAAFAALNDQSYIDSYVQEVLEARNWIKDQFEKHHVKHHIDGGNYFLLWPKSKPQLVEQKLKSSGILIRNMDKKKNLKGSIRVSIGTIDQMKRFWSAFRIVDEV | not soluble
19 | MGSDKIHHHHHHMFVSPMLLHSIKEPFNDENYITELKFDGIRLILSKFDNQIKLYTRHNNEVTSKFPELMDLDIPDGTVLDGEVIVAASGGAPDFEAVMERFMSKKSAHNIVYCVFDVIYKDGQSIAAKPLTERKTVLNSLELDHPNVFVIEGTQGNGLAYFNLAKEKNLEGIVIKKANSPYEINKRSHNWLKVINYDYTEVLITGYTKKDIKFLLSYPDGTSAGFMEFMPHAERTKFHSMKQVKSESDEYVFIEPILCNVKHRFKTKHGKLRIPSFESWRV | not soluble
20 | EPDLDDWFENDREDLRHFVGIYVLAHYRNRPSDVALLADAPHHEARVLRLKNGKIVTAIQIAKEGGIPKAVIDKMAKGYKPPGNIIPDMMVKHHYAKEFARLKGYRVVRIATHPDAMDMGLGSKALELLIKEAEEKGLDWVGSGFGASPELIRFWVRNGFAVVHLSPTRNPVSGEYTAIVIKP | not soluble
21 | MVRVGMRAAPRVSLEALKAALGGLKLSEAKVYLITDWQDKRDQARYALLLHTGKKDLLVPDAFGPAFPGGEEALSELVGLLLAQGARRFYEAVVSPGEMTALLDLPPEELLKRVMAIANPTDPGIYLKRAA | soluble
